The assay concerns the target T1, FtsA (E. coli, UniProt P0ABH0 1-420).
T1 sequence (looked up): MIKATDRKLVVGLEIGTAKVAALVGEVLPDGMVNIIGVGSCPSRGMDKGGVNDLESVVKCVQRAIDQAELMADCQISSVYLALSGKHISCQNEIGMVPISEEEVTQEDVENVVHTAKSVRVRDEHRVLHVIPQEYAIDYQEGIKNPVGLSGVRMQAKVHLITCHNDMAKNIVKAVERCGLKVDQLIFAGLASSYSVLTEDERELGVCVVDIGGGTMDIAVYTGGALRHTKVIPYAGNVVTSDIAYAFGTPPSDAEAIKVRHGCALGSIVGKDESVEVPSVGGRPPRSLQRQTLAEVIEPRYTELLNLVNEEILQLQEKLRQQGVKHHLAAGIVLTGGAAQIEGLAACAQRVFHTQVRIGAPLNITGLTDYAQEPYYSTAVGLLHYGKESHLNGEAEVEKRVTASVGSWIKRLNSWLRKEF
The assay can be described thus: TIRF microscopy of FtsZ membrane recruitment on supported lipid bilayers.

* marks the point of attachment. 6xHis = N-terminal hexahistidine tag, N[C@@H](Cc1c[nH]cn1)C(=O)N[C@@H](Cc1c[nH]cn1)C(=O)N[C@@H](Cc1c[nH]cn1)C(=O)N[C@@H](Cc1c[nH]cn1)C(=O)N[C@@H](Cc1c[nH]cn1)C(=O)N[C@@H](Cc1c[nH]cn1)C(=O)*

B1: Alexa Fluor 488-labeled FtsZ (natural protein, E. coli, UniProt P0A9A6 1-383, looked up)
chain: MFEPMELTNDAVIKVIGVGGGGGNAVEHMVRERIEGVEFFAVNTDAQALRKTAVGQTIQIGSGITKGLGAGANPEVGRNAADEDRDALRAALEGADMVFIAAGMGGGTGTGAAPVVAEVAKDLGILTVAVVTKPFNFEGKKRMAFAEQGITELSKHVDSLITIPNDKLLKVLGRGISLLDAFGAANDVLKGAVQGIAELITRPGLMNVDFADVRTVMSEMGYAMMGSGVASGEDRAEEAAEMAISSPLLEDIDLSGARGVLVNITAGFDLRLDEFETVGNTIRAFASDNATVVIGTSLDPDMNDELRVTVVATGIGMDKRPEITLVTNKQVQQPVMDRYQQHGMAPLTQEQKPVAKVVNDNAPQTAKEPDYLDIPAFLRKQAD
modifications: Alexa Fluor 488 label (site not stated)
In the case of B1, the binding result is listed as “binds”.

B2: ^N-pepPBP1b (residues 1-64) peptide, N-terminal 6x-His tag, C-terminal cysteine, labelled with cyanine 5 (peptide)
peptide: 6xHis-MAGNDREPIGRKGKPTRPVKQKVSRRRYEDDDDYDDYDDYEDEEPMPRKGKGKGKGRKPRGKRGC(sulfo‑cyanine5‑maleimide)
B2: the binding result is reported as “binds”.

The record behind these values is doi:10.1101/2025.04.02.646830 (bioRxiv, 2025).
